# Test results: patent US9879094B2, “Nucleic acid molecules encoding for BACE1 antibodies” (Genentech, Inc., priority 2010, dated 2018)
# Where “and” joins values, the source holds several entries; their conditions need not be identical. Identical values can stand only once.
# B1: YW412.8.31: affinity matured form of YW412.8 anti-BACE1 antibody (antibody, V domains shown)
# VH: EVQLVESGGGLVQPGGSLRLSCAASGFTFLGYGIHWVRQAPGKGLEWVGWISPAGGSTDYADSVKGRFTISADTSKNTAYLQMNSLRAEDTAVYYCARGPFSPWVMDYWGQGTLVTVSS
# VL: DIQMTQSPSSLSASVGDRVTITCRASQDVSTAVAWYQQKPGKAPKLLIYSASFLYSGVPSRFSGSGSGTDFTLTISSLQPEDFATYYCQQFPTYLPTFGQGTKVEIK
# Assays:
# murine BACE1 ECD = molecular target: T1, murine BACE1 ECD (Mus musculus, UniProt P56818); assay: BIAcore SPR binding kinetics, mouse BACE1; settings: mouse BACE1, pH 7.0, 25° C.
# T1 construct: human BACE1 ECD or murine BACE1 ECD (amino acids 1-457) was injected in PBT buffer
# Description: (§1) The binding kinetics of YW412.8.31 was assessed. Briefly, binding affinities of anti-BACE1 IgGs were measured by surface plasmon resonance (SPR) using a BIAcore™-3000 instrument. YW412.8.31 anti-BACE1 human IgG was captured by mouse anti-human Fc antibody (GE Healthcare, cat# BR-1008-39) coated on CM5 biosensor chips to achieve approximately 100 response units (RU). For kinetics measurements, two-fold serial dilutions (0.98 nM to 125 nM) of human BACE1 ECD or murine BACE1 ECD (amino acids 1-457) was injected in PBT buffer (PBS with 0.05% Tween 20) at 25° C. with a flow rate of 30 μl/min. Association rates (kon) and dissociation rates (koff) were calculated using a simple one-to-one Langmuir binding model (BIAcore™ Evaluation Software version 3.2). The equilibrium dissociation constant (KD) was calculated as the ratio koff/kon.
# [1] = system: Aβ1-40 and Aβ1-42 in hAPP transgenic mice; assay: hAPP transgenic mice, continuous ICV infusion, Aβ levels; assay type: in vivo, mouse; settings: ICV infusion 7 days
# Description: Similar experiments were also performed in which YW412.8.31 anti-BACE1 antibody was delivered systemically or directly into hAPP transgenic mice brains by continuous ICV infusion. For ICV delivery, antibody was delivered continuously for 7 days via an Alzet osmotic minipump (model 2001) implanted unilaterally. The amount of YW412.8.31 antibody delivered was 0.041 mg/day (low dose) or 0.41 mg/day (high dose); 0.33 mg/day Control IgG was delivered to the control group. At euthanasia, plasma, cortex, and hippocampus were harvested and analyzed for levels of soluble Aβ1-40 and Aβ1-42 by ELISA (The Genetics Company) following manufacturer's instructions.
# [2] = Antibody concentration in monkey serum and CSF; assay type: in vivo, Cynomolgus monkey; settings: 30 mg/kg IV
# Description: Cynomolgus monkeys were dosed with control IgG or YW412.8.31 anti-BACE1 antibody (30 mg/kg) by IV delivery. Plasma and CSF were sampled up to 7 days prior to dosing to set mean baseline Aβ1-40 levels in each in individual animal, and then at various times after dosing. Total anti-BACE1 or control antibody concentrations in monkey serum and CSF samples were measured using monkey-adsorbed goat anti-human IgG polyclonal antibody (Bethyl, Montgomery, Tex.) as both coat and detection (FIG. 20). Free anti-BACE1 antibody concentrations in monkeys were determined using BACE1 ECD as coat and the monkey-adsorbed goat anti-human IgG antibody (Bethyl) for detection.
# human BACE1 ECD = molecular target: T2, human BACE1 ECD (Homo sapiens, UniProt P56817); assay: BIAcore SPR binding kinetics, human BACE1
# T2 construct: human BACE1 ECD or murine BACE1 ECD (amino acids 1-457) was injected in PBT buffer
# Description: as §1
# Cathepsin D = molecular target: T3, Cathepsin D (Homo sapiens, UniProt P07339); assay: MCE assay, cathepsin D; assay type: biochemical
# T3 construct: the extracellular domain of Cathepsin D (6 nM, Calbiochem®); purchased Calbiochem
# Description: The MCE assay reactions were carried out in a final volume of 20 μL per well in a 384-well microplate. A standard enzymatic reaction, initiated by the addition of 10 μL 2× substrate to 5 μL of 4× enzyme and […] of 4× compound, containing 12 nM human BACE1 extracellular domain, […] amyloid precursor protein beta secretase active site peptide (FAM-[…]-CONH2 (SEQ ID NO:55)), 50 mM NaOAc pH 4.4 and 0.1% CHAPS. The same reaction conditions were used for the extracellular domain of human BACE2 enzyme (5 nM) and the extracellular domain of Cathepsin D (6 nM, Calbiochem®). After incubation for 60 minutes at ambient temperature, the product and substrate in each reaction were separated using a 12-sipper microfluidic chip analyzed on an LC3000® (both, Caliper Life Sciences). The separation of product and substrate was optimized by choosing voltages and pressure using the manufacturer's optimization software. The separate buffer contained 100 mM HEPES pH 7.2, 0.015% Brij-35, 0.1% coating reagent #3, 10 mM EDTA and 5% DMSO. The separation conditions used a downstream voltage of −500V, an upstream voltage of −2250V and a screening pressure of −1.2 psi. The product and substrate fluorescence was excited at a wavelength of 488 nm and detected at a wavelength of 530 nm. Substrate conversion was calculated from the electropherogram using HTS Well Analyzer software (Caliper Life Sciences).
# [3] = system: E13.5 dorsal root ganglia neurons; assay: Aβ40 production in DRG neurons; assay type: cell-based, mouse; settings: highest concentrations
# Description: Similar studies were also performed in dorsal root ganglia, cortical neurons and hippocampal neurons isolated from mice. Briefly, dissociated neuronal cultures were prepared from E13.5 dorsal root ganglia (DRG), E16.5 cortical neurons and E16.5 hippocampal neurons. Neurons were grown for five days in vitro. Fresh media containing YW412.8.31 anti-BACE antibody or control IgG1 was incubated with the neurons for 24 hours. Media was harvested and assayed for the presence of Aβ40 using the MSD® Rodent/Human (4G8) A1340 Ultrasensitive kit according to the Manufacturer's instructions. Aβ40 values were normalized for cell viability, as determined using the CellTiter-Glo Luminescent Cell Viability Assay (Promega). The experiment was performed at least three times, and each point was repeated in duplicate. Data was plotted using a four-parameter non-linear regression curve-fitting program (Kaleidagraph, Synergy Software).
# [4] = system: 293-HEK cells stably expressing wild-type human amyloid precursor protein; assay: Aβ1-40 production in 293-HEK cells expressing APP; assay type: cell-based
# Description: To determine whether the observed in vitro inhibitory action of the anti-BACE1 antibodies on APP processing was also present in a cellular context, […]. The ability of the antibodies to inhibit Aβ1-40 production in 293-HEK cells stably expressing wild-type human amyloid precursor protein was assessed as follows. 293-APP^WT cells were seeded overnight at a density of 3×10^4 cells/well in a 96-well plate. […] of fresh media (DMEM+10% FBS) containing an anti-BACE1 antibody or a control IgG1 antibody was incubated with the cells for 24 hours at 37° C. A tricyclic small molecule BACE1 inhibitor (BACE1 SMI) was also used as a control ((Compound 8e—Charrier, N. et al. J. Med. Chem. 51:3313-3317 (2008)). The cellular media was harvested and assayed for the presence of Aβ1-40 using a Aβ1-40 HTRF® assay (CisBio) according to the manufacturer's instructions. Aβ1-40 values were normalized for cell viability, as determined using the CellTiter-Glo Luminescent Cell Viability Assay (Promega). Experiments were performed at least three times, and each point in each experiment was repeated in duplicate. Data was plotted using a four-parameter non-linear regression curve-fitting program (Kaleidagraph, Synergy Software).
# T1 sequence (P56818 22-457): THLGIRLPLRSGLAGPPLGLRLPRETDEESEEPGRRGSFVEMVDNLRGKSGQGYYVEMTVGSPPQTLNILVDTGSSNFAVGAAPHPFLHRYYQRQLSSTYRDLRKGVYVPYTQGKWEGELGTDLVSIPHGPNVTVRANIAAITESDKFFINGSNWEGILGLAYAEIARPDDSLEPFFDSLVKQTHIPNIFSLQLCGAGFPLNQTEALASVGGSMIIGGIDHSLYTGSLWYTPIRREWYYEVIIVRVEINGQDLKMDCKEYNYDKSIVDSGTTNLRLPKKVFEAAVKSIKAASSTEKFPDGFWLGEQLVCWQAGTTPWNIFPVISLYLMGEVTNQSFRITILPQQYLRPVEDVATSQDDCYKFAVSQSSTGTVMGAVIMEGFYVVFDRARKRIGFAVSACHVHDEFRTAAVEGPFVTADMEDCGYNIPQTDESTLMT
# T2 sequence (P56817 22-457): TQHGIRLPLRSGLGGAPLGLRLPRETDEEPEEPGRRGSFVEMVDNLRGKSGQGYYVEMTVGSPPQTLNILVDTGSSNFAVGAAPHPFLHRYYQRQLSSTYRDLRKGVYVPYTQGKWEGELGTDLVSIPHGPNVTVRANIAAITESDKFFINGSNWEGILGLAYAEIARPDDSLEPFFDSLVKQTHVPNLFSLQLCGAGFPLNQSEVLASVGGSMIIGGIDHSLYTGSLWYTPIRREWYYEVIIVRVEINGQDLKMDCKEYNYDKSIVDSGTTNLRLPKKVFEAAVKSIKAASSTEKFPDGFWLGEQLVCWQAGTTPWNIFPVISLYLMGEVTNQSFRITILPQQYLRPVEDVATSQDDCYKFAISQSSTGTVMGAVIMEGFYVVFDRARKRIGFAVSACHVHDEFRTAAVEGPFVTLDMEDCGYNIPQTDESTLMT
# T3 sequence (P07339 65-412, species assumed): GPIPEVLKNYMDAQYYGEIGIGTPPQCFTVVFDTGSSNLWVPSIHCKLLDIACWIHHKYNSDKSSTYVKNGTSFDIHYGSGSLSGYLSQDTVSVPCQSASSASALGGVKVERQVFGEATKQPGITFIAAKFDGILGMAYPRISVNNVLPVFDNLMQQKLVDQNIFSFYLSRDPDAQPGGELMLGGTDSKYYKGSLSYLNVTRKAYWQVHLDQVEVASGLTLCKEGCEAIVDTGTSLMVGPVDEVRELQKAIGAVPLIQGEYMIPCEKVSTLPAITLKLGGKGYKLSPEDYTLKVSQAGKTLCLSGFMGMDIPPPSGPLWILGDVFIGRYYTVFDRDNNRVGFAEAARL
molecule,measurement,setting,value
B1,KON,murine BACE1 ECD,1.01 × 10^5 M^−1S^−1 and 1.4 × 10^5 M^−1S^−1
same,Kd,murine BACE1 ECD,1.4 nM and 2.1 nM
same,Aβ reduction following ICV infusion,[1],15-23%
same,reduction of Aβ1-40 and Aβ1-42 in cortex,[1]; both doses,15-23%
same,reduction of Aβ1-40 and Aβ1-42 in hippocampus,[1]; both doses,15-20%
same,concentration in CSF,[2],0.2-0.3 μg/ml and ~2 nM
same,peak serum antibody concentration,[2]; 15 minutes post administration,~800 µg/mL
same,serum antibody concentration,[2]; 7 days post-dose,232 µg/mL
same,Binding to BACE1,human BACE1 ECD; at both pH 7.0 and 5.0,confirmed
same,KON,"human BACE1 ECD; human BACE1, IgG captured, pH 7.0, 25° C.",1.1 × 10^5 M^−1S^−1 and 1.05 × 10^5 M^−1S^−1
same,inhibition of cathepsin D,Cathepsin D,did not inhibit
same,reduction in Aβ40 production,[3],~50%
same,inhibition of Aβ1-40 production,"[4]; 24 hours, compared to non-BACE1 IgG (Xolair)",inhibited
same,maximum reduction of Aβ1-40 production,[4]; APP-expressing 293 cells,~90%
